Results: publication PMC5176175, “Bg10: A Novel Metagenomics Alcohol-Tolerant and Glucose-Stimulated GH1 ß-Glucosidase Suitable for Lactose-Free Milk Preparation” (PLoS ONE, 2016)

Substrate: O=[N+]([O-])c1ccc(O[C@@H]2O[C@H](CO)[C@@H](O)[C@H](O)[C@H]2O)cc1
Assay: purified protein
Format: biochemical, uncultured bacterium
Details: pH 7.0, 37 °C, sodium phosphate buffer, 0.1-10 mM substrate

B1: Bg10 (uncultured bacterium) (protein)
chain: MTAVRSESAELSQSPASYRFPPGFVWGAATAAYQIEGAAAEDGRTPSIWDTFSHTPGRVLNGDTGDIAADHYHRFRDDVALMSDLNLGAYRFSVSWSRVQPTGRGPAVQRGLDFYRQLVDELLEKGITPVATLYHWDLPQDLEDVGGWTVRDTPERFAEYTEIVAAALGDRVPYWTTLNEPWCSAYLGYGSGVHAPGRTDPEAALKAVHHLNLAHGRGIGVLRSLLPSTARTSITLNLHQIRPLSTSPADLDAARRIDAVGNRVWLGPILDGAYPQDVLADTGHLVDWDRLVRDGDLEEISRPIDLLGINYYTPTLVSDGRAHADGPAMPRNDGHGASAHSPWPGSEHVAFHLAPGETTAMRWAVDASGLYDLLMRIHREHPGLPMMVTENGAAYDDYISPEGAINDPDRIAYLRGHLSAVHRALADGADVRGYFLWSLLDNFEWAYGYSKRFGAVYVDFGTQRRIPKQSAHWYAAVARDNVLPDGPEEDGTS
notes: ORF10 in pET28a (EcoRI/HindIII), E. coli BL21(DE3), Ni-NTA and size exclusion
Protein B1 has a Km of 490 ± 120 µM and a kcat of 2.918 ± 0.115 s⁻¹.
